# Measured values published in PMC10113255, “PHF14 enhances DNA methylation of SMAD7 gene to promote TGF-β-driven lung adenocarcinoma metastasis”.
# T1: PHF14 ePHD domain WT (Homo sapiens, UniProt O94880 382-499)
# T1 sequence: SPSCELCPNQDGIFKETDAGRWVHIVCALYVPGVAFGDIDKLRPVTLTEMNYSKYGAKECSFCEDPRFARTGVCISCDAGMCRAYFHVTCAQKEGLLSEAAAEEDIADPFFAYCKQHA
# B1: AT-rich probe (dsDNA)
# DNA 1: CATTAGATGATAGCATTAGATGATAG
# DNA 2: CTATCATCTAATGCTATCATCTAATG
# B2: CG-rich probe, unmethylated (dsDNA)
# DNA 1: ACGGCTCGTCGCTACGGCTCGTCGCT
# DNA 2: AGCGACGAGCCGTAGCGACGAGCCGT
# Biological target: T1, PHF14 ePHD domain WT
# Experiment: SPR; protein immobilized on CM5; SPR: HBS-P (10 mM HEPES pH 7.4, 150 mM NaCl, 0.05% P20), 25 °C, 1:1 Langmuir fit; EMSA: LightShift kit protocol, 0.5x TBE native PAGE, buffer not stated
# Conditions: protein: recombinant; tags: His (EMSA, purification method); FLAG (SPR); label: biotin (EMSA); blunt
row,Binder,Kd [nM]
1,B1,230
2,B2,36
